Measured values: patent US12551583B2, “Radiolabeled ligands for targeted PET/SPECT imaging and methods of their use” (MEMORIAL SLOAN KETTERING CANCER CENTER, priority 2016, dated 2026)

Test system: 4T1 orthotopic tumor-bearing BALB/c mice
Assay: in vivo
Conditions: mouse; for biodistribution, Blood / biodistribution, Bone / biodistribution, Brain / biodistribution, Heart / biodistribution, Kidneys / biodistribution, L. intestine / biodistribution, Liver / biodistribution, Lungs / biodistribution, Muscle / biodistribution, Pancreas / biodistribution, S. intestine / biodistribution, Skin / biodistribution, Spleen / biodistribution, Stomach / biodistribution, Tumor (4T1 tumoral uptake): iv, 4 h
Protocol: 4T1 orthotopic BALB/c mouse model. The cells were removed from the flasks, concentrated, and resuspended in minimal media for cell counting. The cells were then diluted to contain approximately 1 million cells in 30 μL of media (for orthotopic allografts). Following an MSKCC Institutional Animal Care and Use Committee approved protocol, 8-10 week old BALB/c mice (Charles River Laboratories, Wilmington, MA) were surgically implanted with one million 4T1 cancer cells into the first or the last mammary fat pad of the right side of the animal using aseptic surgical techniques and sterile staple closures while the mice were under anesthetic. Additionally, mice were given injections of meloxicam (24 h pain killer) in the scruff and bupivacaine intradermally prior to surgical incisions. One day post surgery, the mice were again given meloxicam and checked to ensure that the closure was healing. Two and three days post surgery, the mice were checked to ensure that the animals were healthy and recovering well from the surgery. Five to seven days post surgery, the staples were removed. Five to nine days post surgery, the mice were injected with 50-75 μCi (0.9-0.4 nmol) of the respective radiopharmaceutical for in vivo biodistribution or 500-600 μCi (9-11 nmol) for in vivo imaging. The mice receiving ^64Cu-NOTA-pHLIP were sacrificed at 1, 2, 4, 12, 24, 36, and 48 h; the mice receiving [^18F]—AlF-NOTA-pHLIP were sacrificed at 0.5, 1, 2, 4, 6 and 8 h. The 4T1 tumors in this study were purposely used 5-9 days after inoculation to ensure lower tumoral pH. Animal models. Animal studies were conducted according to MSKCC IACUC-approved animal protocol. 4T1 (orthotopic breast cancer allografts of 1×10^6 cells surgically implanted in the mammary fat pad) and B16-F10 (orthotopic melanoma allografts of 1×10^5 cells injected intradermally on the shoulder) tumors were orthotopically inoculated in media in female BALB/c and C57Bl/6 mice (Charles River Laboratories (CRL)), respectively. Additionally, PC3 (3×10^6 cells) or LNCaP (3-6×10^6 cells) tumors were subcutaneously xenografted on the shoulder of athymic nude male mice (CRL). Mice were used once tumor volumes were approximately 90-300 mm^3. In vivo animal PET imaging and biodistribution. Mice were injected with radiolabeled NOTA-pHLIP derivatives i.v. (500-700 μCi/mouse for PET or SPECT imaging studies and 25-100 μCi/mouse for biodistribution studies). All injections were less than 200 μL with <10% EtOH in sterile PBS. PET images were obtained with the mice under anesthesia in an Inveon PET-CT or microPET Focus 120 (Siemens) at 0.5-48 h p.i. All images were analyzed using ASIPro VM (Concorde Microsystems). SPECT images were obtained with the mice under anesthesia in a NanoSPECT/CT Plus at 4-24 h p.i. All SPECT images were reconstructed using HiSPECT and analyzed using InVivoScope. Dissections for ex vivo biodistribution were performed on mice after CO2 asphyxiation or cervical dislocation while anesthetized at reported time points. Weight of the syringe prior to injection and after injection was used to determine the mass of injectate. Activity of the syringe prior to injection and after injection was used to determine the percent of injectate administered. The mass injected was corrected by the percent of radioactivity injected. Four to five aliquots (10 μL) were weighed and counted as internal standards for each study. All of the collected organs were counted using an automatic gamma counter (Wizard 3″, PerkinElmer, Waltham, MA). The total injected dose was found as the mass injected dose×fraction radioactivity injected×internal standard average counts/g. The percent injected dose (% ID) was determined as the counts for the tissue×100/total injected dose. The % ID/g was calculated as the % ID/tissue weight. The average and standard deviation of the % ID and % ID/g was determined using normal methods (n−1) for each set of mice.

SMILES	biodistribution, Blood [% ID/g]	biodistribution, Bone [% ID/g]	biodistribution, Brain [% ID/g]	biodistribution, Heart [% ID/g]	biodistribution, Kidneys [% ID/g]	biodistribution, L. intestine [% ID/g]	biodistribution, Liver [% ID/g]	biodistribution, Lungs [% ID/g]	biodistribution, Muscle [% ID/g]	biodistribution, Pancreas [% ID/g]	biodistribution, S. intestine [% ID/g]	biodistribution, Skin [% ID/g]	biodistribution, Spleen [% ID/g]	biodistribution, Stomach [% ID/g]	biodistribution, Tumor (4T1 tumoral uptake) [% ID/g]	kidneys-to-large intestine ratio
CC(C)C[C@@H](NC(=O)[C@@H](CC(C)C)NC(=O)[C@@H](CC(=O)O)NC(=O)[C@@H](CC(C)C)NC(=O)[C@@H](CC(C)C)NC(=O)[C@@H](CC(C)C)NC(=O)[C@H](NC(=O)[C@@H](CC(=O)O)NC(=O)[C@H](NC(=O)[C@H]1CCCN1C(=O)[C@@H](Cc1ccccc1)NC(=O)[C@@H](CC(C)C)NC(=O)[C@@H](CC(C)C)NC(=O)[C@@H](CC(=O)O)NC(=O)[C@@H](CC(C)C)NC(=O)[C@@H](Cc1ccc(O)cc1)NC(=O)[C@@H](C)NC(=O)[C@@H](CCCNC(=N)N)NC(=O)[C@@H](Cc1c[nH]c2ccccc12)NC(=O)[C@H]1CCCN1C(=O)[C@@H](CC(N)=O)NC(=O)[C@@H](CCC(N)=O)NC(=O)[C@@H](CC(=O)O)NC(=O)[C@@H](CC(=O)O)NC(=O)[C@@H](CS)NC(=O)[C@@H](C)NC(=S)Nc1ccc(CC2CN(CC(=O)O)CCN(CC(=O)O)CCN2CC(=O)O)cc1)[C@H](C)O)[C@H](C)O)C(=O)N[C@H](Cc1c[nH]c2ccccc12)C(=O)O (single isomer, unassigned) [^64Cu-NOTA-Var3, metal not drawn]	1.371 ± 0.244	0.339 ± 0.018	0.063 ± 0.011	0.49 ± 0.05	7.165 ± 1.126	7.45 ± 2.73	1.034 ± 0.150	1.420 ± 0.117	0.171 ± 0.017	0.279 ± 0.041	0.320 ± 0.042	0.775 ± 0.102	0.340 ± 0.032	0.194 ± 0.050	0.649 ± 0.091	
CC(C)C[C@@H](NC(=O)[C@@H](CCC(=O)O)NC(=O)[C@@H](CC(C)C)NC(=O)[C@@H](CC(C)C)NC(=O)[C@@H](CC(C)C)NC(=O)[C@H](NC(=O)[C@@H](CCC(=O)O)NC(=O)[C@H](NC(=O)[C@H]1CCCN1C(=O)[C@@H](Cc1ccccc1)NC(=O)[C@@H](CC(C)C)NC(=O)[C@@H](Cc1c[nH]c2ccccc12)NC(=O)[C@@H](CCC(=O)O)NC(=O)[C@@H](CC(C)C)NC(=O)[C@@H](Cc1ccc(O)cc1)NC(=O)[C@@H](CCCNC(=N)N)NC(=O)[C@@H](C)NC(=O)[C@@H](Cc1c[nH]c2ccccc12)NC(=O)[C@H]1CCCN1C(=O)[C@@H](CC(N)=O)NC(=O)[C@@H](CCC(N)=O)NC(=O)[C@@H](CCC(=O)O)NC(=O)[C@@H](CCC(=O)O)NC(=O)[C@@H](CSC1CC(=O)N(CCNC(=O)CN2CCN(CC(=O)O)CCN(CC(=O)O)CC2)C1=O)NC(=O)[C@@H](C)N)[C@H](C)O)[C@H](C)O)C(=O)O (single isomer, unassigned) [^64Cu-NO2A-cysVar7, metal not drawn]	2.31 ± 0.18	1.57 ± 0.18	0.25 ± 0.02	2.68 ± 0.33	95.5 ± 11.9	8.19 ± 0.85	15.6 ± 1.58	4.21 ± 0.23	0.64 ± 0.07	1.84 ± 0.10	6.37 ± 0.11	2.59 ± 0.05	3.31 ± 0.24	3.33 ± 0.31	9.07 ± 1.81	
CC(C)C[C@@H](NC(=O)[C@@H](CCC(=O)O)NC(=O)[C@@H](CC(C)C)NC(=O)[C@@H](CC(C)C)NC(=O)[C@@H](CC(C)C)NC(=O)[C@H](NC(=O)[C@@H](CCC(=O)O)NC(=O)[C@H](NC(=O)[C@H]1CCCN1C(=O)[C@@H](Cc1ccccc1)NC(=O)[C@@H](CC(C)C)NC(=O)[C@@H](Cc1c[nH]c2ccccc12)NC(=O)[C@@H](CCC(=O)O)NC(=O)[C@@H](CC(C)C)NC(=O)[C@@H](Cc1ccc(O)cc1)NC(=O)[C@@H](CCCNC(=N)N)NC(=O)[C@@H](C)NC(=O)[C@@H](Cc1c[nH]c2ccccc12)NC(=O)[C@H]1CCCN1C(=O)[C@@H](CC(N)=O)NC(=O)[C@@H](CCC(N)=O)NC(=O)[C@@H](CCC(=O)O)NC(=O)[C@@H](CCC(=O)O)NC(=O)[C@@H](CS)NC(=O)[C@@H](C)NC(=S)Nc1ccc(CC2CN(CC(=O)O)CCN(CC(=O)O)CCN2CC(=O)O)cc1)[C@H](C)O)[C@H](C)O)C(=O)O (single isomer, unassigned) [[^18F]—AlF-NOTA-Var7]	2.292 ± 0.277	0.571 ± 0.202	0.118 ± 0.011	0.78 ± 0.06	7.759 ± 0.658	22.08 ± 6.02	1.089 ± 0.066	2.325 ± 0.212	0.325 ± 0.073	0.373 ± 0.051	0.776 ± 0.196	1.377 ± 0.148	0.485 ± 0.029	0.593 ± 0.153	1.105 ± 0.125	0.55±0.19
CC(C)C[C@@H](NC(=O)[C@@H](CC(C)C)NC(=O)[C@@H](CC(=O)O)NC(=O)[C@@H](CC(C)C)NC(=O)[C@@H](CC(C)C)NC(=O)[C@@H](CC(C)C)NC(=O)[C@H](NC(=O)[C@@H](CC(=O)O)NC(=O)[C@H](NC(=O)[C@H]1CCCN1C(=O)[C@@H](Cc1ccccc1)NC(=O)[C@@H](CC(C)C)NC(=O)[C@@H](CC(C)C)NC(=O)[C@@H](CC(=O)O)NC(=O)[C@@H](CC(C)C)NC(=O)[C@@H](Cc1ccc(O)cc1)NC(=O)[C@@H](C)NC(=O)[C@@H](CCCNC(=N)N)NC(=O)[C@@H](Cc1c[nH]c2ccccc12)NC(=O)[C@H]1CCCN1C(=O)[C@@H](CC(N)=O)NC(=O)[C@@H](CCC(N)=O)NC(=O)[C@@H](CC(=O)O)NC(=O)[C@@H](CC(=O)O)NC(=O)[C@@H](CS)NC(=O)[C@@H](C)NC(=S)Nc1ccc(CC2CN(CC(=O)O)CCN(CC(=O)O)CCN2CC(=O)O)cc1)[C@H](C)O)[C@H](C)O)C(=O)N[C@H](Cc1c[nH]c2ccccc12)C(=O)O (single isomer, unassigned) [[^18F]—AlF-NOTA-Var3]	2.201 ± 0.374	0.540 ± 0.119	0.107 ± 0.023	0.78 ± 0.08	8.237 ± 1.106	22.05 ± 2.46	0.923 ± 0.153	2.217 ± 0.380	0.282 ± 0.055	0.332 ± 0.020	0.927 ± 0.152	1.126 ± 0.115	0.469 ± 0.093	0.482 ± 0.223	0.923 ± 0.119	0.52±0.15
